B1: CO-07: alkene cleavage oxygenase, Thermopolyspora flexuosa, SEQ ID NO: 40 (protein, listed as Thermopolyspora flexuosa)
chain: MVWFPPPKDPFDAPMRVEADIRGVQVTQGEVPEHLDGTYYRCVSDRQWPSYVENDLELFNSDGMIISFRFHKGRVDFKSRYVRTPRFVAEEKAGRALFGAYRNPFDDDPSVAGISRGLANTNVFFHGGKLYASKEDSPPILIDPDTLETIGEYDFEGALTSRTATAHPKFDPVTGEMVFFGYEAKGPGTPDIAYYEADPSGRIIHEAWLEAPYTSMVHDWAVTQNFVIFPIIPLRSDIEWIKKGQSYFQWDPYEDVYLGVMPRKGTAKDLRWYRGSNRFASHIMGAYDDGRYVYIDTPVGQTNYFPWFPDITGAPYDPERSKGYLSRWTIDTQGESDGFTETRLSDLPGEFPRMDDRQETLPYHWGIMLLTDVPGRNAPGGGFRWLMGIDLKTGRKQIYYPGDHCTLGEAIFVPAAPDAPPGVGYVLTVVARRKEMRSDLVLLDAQRLDGEPVCTLSLPMRIRMGVHGNWVSAAELAGRTD
B2: CO-01: aromatic dioxygenase from Thermothelomyces thermophilus (GenBank XP_003665585), SEQ ID NO: 26 (protein, listed as Thermothelomyces thermophilus)
chain: MAHIHDLAPEVSNYSSGRLTPPTPVRFPRTPVFASMNKPCRFEGDVFDLEVSGAIPPDIDGTFFRVQPDHRFPPLFEDDIHFNGDGSVTAIRISGGHADLRQRYVRTERYLLETRARRSLFGRYRNPWTDNESVRGVIRTASNTNVVFWRGALLAMKEDGPPFAMDPVTLETLGRYDFEGQILSPTFTAHPKIDPDTGEMVCFAYEAGGDGSDCSVDVAVWTVDADGKKVEECWYKAPFAGMIHDCGITKNWVVLPLTPIKMDLERMKRGGNKFAWDPSEDQWYGVVPRRGAKSDDIIWFRADNGFHGHVAGCYELPSGEIVFDLTVADGNVFFFFPPDDNITPPADGVAKRNRLSSPTVRWIFDPKAKKSAIRTEAAGDADIWVADERVKPALTWPTNGEFSRIDDRYVTKPYRHFWQAVVDPTRPYDFEKCGPPAGGLFNCLGHYTWSDQNYHHGHNTGDPSGDGRSNGSAEEATAGKFGLQDVYFAGPTMTFQEPTFIPRQGAAEGEGYLIALLNHLDELRNDVVIFEARNLGKGPLAVIHLPLKLKLGLHGNWVDSREIEAWRRRRAENGDVGPLRVAKEPLPWQKKFAAAAQNGSNGV
B3: CO-06: alkene cleavage oxygenase, Novosphingobium sp., SEQ ID NO: 38 (protein, listed as Novosphingobium sp.)
chain: MNIRFPNNDFTSFEAPMRAEIDLKGLEVIQGEVPRQLSGGFFRLIGDRKWPAFVENDIFMLGEDGMASCFYFKDGQVDFKMRYVRTPRFVAEEKAGRALFGHYRNPFSDDPSVAGLSRGTANVTVLVHAGKMLALKEDSPAIELDPFTLETIGEYDWGGVVTAKAITAHPKIDPKTGELVFFGYCAAGPATRDIAYYEADAEGRIIHETWFEAPYTCMVHDIMVTENYVVFPITPLRHELEWIERNEPAFKWDPSEDVYLGVLPRKGKGEQVRWFKGPNQCHGHTVGAFDDGRFIYADNTFSKRSFFHFFPNTDGSEFNPADAMPFIKRLVIDMESNDDSFTEQQMFGYPCELPRIDTRFETMPYNFVTMNLLDVPEQERIGMGFQWVATMDINGQKPAKIYYAGHDCSIGEPQFVPRSDDAAEGDGYILTVVGKHREMRSELLILDAGDITAPPIATVALPFRLRSTGHGYWYGTRQLRGETNIIGAW

assay: Spectrophotometric enzymatic assay: cleaving activity, production of vanillin from coniferyl alcohol at 349 nm; assay type: biochemical; details: spectrophotometric assay
Experimental: Stock solution 200× of coniferyl alcohol (90 mg) was prepared in ethanol (5 mL) and stored at −20° C. From this, a new stock solution 20× of coniferyl alcohol (10 mM) was freshly prepared by 1:10 dilution in Glycine-NaOH (50 mM, pH 9.0). A cuvette containing 0.750 mL Glycine-NaOH (50 mM, pH 9.0) and 0.05 mL of the substrate 20× stock was pre-warmed at 25° C. for 1.5 mins. Then, the reaction was initiated by the addition of 0.2 mL of the enzyme sample. The cleaving […] activity was measured spectrophotometrically following the production of vanillin at 349 nm (ε349=26.7 mM^−1cm^−1 experimentally determined). One unit of activity (U) is defined as the amount of enzyme required to produce 1 μmol of vanillin per min. Agilent Cary 60 UV-Vis Spectrophotometer was used for all the measurements.
Searching for alternative novel alkene cleavage oxygenases (COs) catalysing the formation of vanillin from coniferyl alcohol was performed. A set of 27 sequences and 10 COs from different branches of the phylogenetic tree were selected, named CO-02-11. Two additional enzymes were included, which are located in different clusters of the phylogenetic tree: Lignostillbene dioxygenase from Pseudomonas brassicaceraum (PbLSD, PDB: 5V2D) and aromatic dioxygenase (Ado, CO-01) from Thermothelomyces thermophilus (GenBank ID: XP_003665585). The proteins were recombinantly expressed in E. coli BL21(DE3), following the same protocol developed for IECO. […] Putative COs were screened by spectrophotometric assay, monitoring the formation of 3a upon 2a cleavage. From a set of twelve COs, four positive hits, namely CO-01, CO-03, CO-06 and CO-07 were found. Positive variants were tested in the one pot cascade and compared them with IECO In agreement with the spectrophotometric screening, all four COs converted eugenol 1a to vanillin 3a (Table 8). The first step of the cascade is efficiently performed by EUGO, and the substrate is completely consumed. […] Overall, 70±3% conversion of 1a to vanillin 3a was achieved.

Row | Molecule | Screening of putative COs: formation of 3a upon 2a cleavage (hit or inactive)
1 | B1 | positive hits
2 | B2 | positive hits
3 | B3 | positive hits

assay: Bioconversion of eugenol to vanillin: one-pot concurrent cascade EUGO + alkene cleavage oxygenase (5 mM scale); assay type: biochemical; details: Table 8a; EUGO FD-CFE 1 mg/mL, CO-XX FD-CFE 1 mg/mL, catalase 10 mg/mL; eugenol 5 mM; pH 8.0
Experimental: Stock solutions of eugenol (100 mM) were prepared in ethanol or DMSO and stored at −20° C. Unless otherwise stated, the reaction mixtures (0.5 mL) were set up in 1.5 mL glass vials as follows: freeze-dried cell free extract of IECO/CO-XX (3 mg) and EUGO (0.5 mg) were dissolved in the reaction buffer (50 mM glycine-NaOH pH 9.0) containing sodium ascorbate (1 mM), FeSO4 (1 mM) and bovine liver catalase (5 mg, Sigma Aldrich C40). The reaction was initiated by the addition of 0.025 mL eugenol stock (final concentration 5 mM), then incubated at 30° C. and 120 rpm overnight (rotary shaker). The final content of cosolvent was 5% v/v. To improve oxygenation, the vials were placed horizontally. At certain time points, samples (0.2 mL) were quenched with methanol (0.4 mL) and the mixture was centrifuged at 20238 g for 5-10 mins. Finally, the supernatant was analysed by HPLC.
EUGO (0.5 mg CFE), CO-25 (3 mg CFE) and catalase (5 mg, Sigma product #C40) were dissolved in 50 mM Glycine-NaOH pH 9.0 or Tris-HCl pH 8.0 together with FeSO4 (1 mM) and sodium ascorbate (1 mM). Note that the buffer content of the freeze-dried biocatalyst prep was not considered for the assembling of the reaction. The reaction was started by the addition of 5 mM eugenol from a 20× stock in ethanol. The reactions—performed in glass vials—were then incubated at 30° C. and 120 rpm (25 mm shaker). Finally, samples of the reaction mixture were diluted with MeOH and analyzed by HPLC at 280 and 340 nm.

Row | Reaction composition after 24 hours 1a (%) | Reaction composition after 24 hours 2a (%) | Reaction composition after 24 hours 3a (%) | Reaction composition after 24 hours 5a (%) | Molecule
4 | 51 | 61 | 21 | 18 | B1
5 | ≤1 | 74 | 9 | 17 | B2
6 | 51 | 79 | 5 | 16 | B3

same assay, conditions: Table 8a; EUGO FD-CFE 1 mg/mL, CO-XX FD-CFE 1 mg/mL, catalase 10 mg/mL; eugenol 5 mM; pH 9.0

Row | Reaction composition after 24 hours 1a (%) | Reaction composition after 24 hours 2a (%) | Reaction composition after 24 hours 3a (%) | Reaction composition after 24 hours 5a (%) | Molecule
7 | 51 | 50 | 27 | 23 | B1
8 | 51 | 63 | 13 | 24 | B2
9 | ≤1 | 71 | 6 | 23 | B3

Reference: patent publication US20260176659A1, “IMPROVED METHOD FOR THE PRODUCTION OF NATURAL VANILLIN” (BASE SE, priority 2022, published 2026)
